Results taken from the supplement of paper PMC7877785.
± gives the uncertainty stated by the source.

Experiment: self-splicing fitness, log relative to wild type (ln ratio); higher = more splicing; Tetrahymena group I intron in knt gene, E. coli kanamycin selection, DiMSum; sequences stand for … in CUCUCU…GGAGGGAAAAGUUAUCAGGCAUGCACCUGGUAGCUAGUCUUUAAACCAAUAGAUUGCAUCGGUUUAAAAGGCAAGACCGUCAAAUUGCGGGAAAGGGGUCAACAGCCGUUCAGUACCAAGUCUCAGGGGAAACUUUGAGAUGGCCUUGCAAAGGGUAUGGUAAUAAGCUGACGGACAUGGUCCUAACCACGCAGCCAAGUCCUAAGUCAACAGAUCUUCUGUUGAUAUGGAUGCAGUUCACAGACUAAAUGUCGGUCGGGGAAGAUGUAUUCUUCUCAUAAGAUAUAGUCGGACCUCUCCUUAAUGGGAGCUAGCGGAUGAAGUGAUGCAACACUGGAGCCGCUGGGAACUAAUUUGUAUGCGAAAGUAUAUUGAUUAGUUUUGGAGUACUCGUGGUCG
In short: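 Library with all eight P1ex-region intron nucleotides randomised, intron inside the knt kanamycin-resistance gene on pET-22b(+), in E. coli BL21(DE3). Cells grew overnight at 37°C or 30°C on LB agar with or without 25 μg/mL kanamycin (plus 100 μg/mL carbenicillin, 50 μM IPTG, 0.2% rhamnose), in six replicate transformations. Pooled colonies were amplicon-sequenced on Illumina HiSeq 2500. DiMSum fitness is the error-weighted combination of wild-type-normalised replicate fold changes, kanamycin versus none.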

Sequence | self-splicing fitness (ln) (30 °C) | self-splicing fitness (ln) (37 °C)
ACUAAGCAAUAUUACGGACC | -1.4 ± 0.15 | -0.596 ± 0.19
GAGCAGCAAUAUUACGGAGC | -3.14 ± 0.13 | -0.471 ± 0.11
AACGAGCAAUAUUACGAUCA | -2.1 ± 0.21 | -1.41 ± 0.21
UACGAGCAAUAUUACGGCGA | -1.39 ± 0.15 | -0.508 ± 0.15
GCUAAGCAAUAUUACGUAGA | -0.845 ± 0.055 | -0.223 ± 0.069
AGCGAGCAAUAUUACGCAUG | -3.33 ± 0.22 | -1.48 ± 0.18
UUAAAGCAAUAUUACGCCUU | -1.96 ± 0.18 | -1.28 ± 0.19
AAUAAGCAAUAUUACGGUAC | -2.68 ± 0.21 | -1.79 ± 0.14
UUACAGCAAUAUUACGCCAC |  | -2.7 ± 0.43
CGGAAGCAAUAUUACGCAUG | -1.53 ± 0.13 | -0.32 ± 0.11
CCGUAGCAAUAUUACGCCAA | -3.21 ± 0.41 | -2.77 ± 0.4
AACCAGCAAUAUUACGUGAU | -1.66 ± 0.04 | -1.11 ± 0.05
UGCCAGCAAUAUUACGCCCG | -0.317 ± 0.12 | 0.404 ± 0.14
CCGAAGCAAUAUUACGUGAU | -3.4 ± 0.13 | -2.84 ± 0.19
GGAUAGCAAUAUUACGUCGC | -1.97 ± 0.17 | -1.42 ± 0.21
UGAUAGCAAUAUUACGCGCC | -1.82 ± 0.36 | 0.00337 ± 0.21
GUAAAGCAAUAUUACGCAUA | -1.1 ± 0.098 | -0.728 ± 0.11
GCCUAGCAAUAUUACGUCUA | -3.26 ± 0.38 | -1.73 ± 0.2
UAGCAGCAAUAUUACGUAGC | -3.58 ± 0.44 | -2.78 ± 0.38
GCUAAGCAAUAUUACGAGGU | -2.03 ± 0.19 | -1.51 ± 0.15
AUGCAGCAAUAUUACGAGUA | -2.98 ± 0.19 | -1.53 ± 0.13
CUAGAGCAAUAUUACGUUCG | -1.1 ± 0.047 | -0.578 ± 0.076
GUUUAGCAAUAUUACGGAAG | -2.59 ± 0.23 | -0.848 ± 0.22
AUUAAGCAAUAUUACGUCCU | -0.24 ± 0.097 | 0.264 ± 0.12
CAUCAGCAAUAUUACGUCUC | -3.16 ± 0.19 | -1.75 ± 0.17
AUCUAGCAAUAUUACGGAGG | -1.93 ± 0.14 | -1.96 ± 0.23

Sequence | self-splicing fitness (ln) (30 °C) | self-splicing fitness (ln) (37 °C)
GAAAAGCAAUAUUACGAGUG | -1.08 ± 0.073 | -0.813 ± 0.094
CAUGAGCAAUAUUACGGGGC | -4.13 ± 0.43 | -2.35 ± 0.34
CAUUAGCAAUAUUACGGGUG | -3.18 ± 0.16 | -1.57 ± 0.14
GGAUAGCAAUAUUACGAUCA | 0.409 ± 0.12 | 0.227 ± 0.12
CAGCAGCAAUAUUACGAUUU | -3.59 ± 0.17 | -1.91 ± 0.15
CAAGAGCAAUAUUACGACGG | -0.504 ± 0.087 | 0.00208 ± 0.14
GUUGAGCAAUAUUACGUGAC | -2.31 ± 0.24 | -2.48 ± 0.31
CCAAAGCAAUAUUACGAAUC | -2.82 ± 0.33 | -2.52 ± 0.34
AGUAAGCAAUAUUACGUAGA | -3.23 ± 0.19 | -1.78 ± 0.16
CUAUAGCAAUAUUACGGUCC | -3.69 ± 0.4 | -2.56 ± 0.46
UGGGAGCAAUAUUACGGCCG |  | -1.37 ± 0.28
CCGAAGCAAUAUUACGUACG | -1.37 ± 0.13 | -0.92 ± 0.13
CUCUAGCAAUAUUACGGUUC | -2.69 ± 0.17 | -2.46 ± 0.29
AUUCAGCAAUAUUACGACCU | -0.21 ± 0.095 | 0.317 ± 0.12
AGUCAGCAAUAUUACGUUUC | -3.63 ± 0.15 | -1.34 ± 0.11
AAUAAGCAAUAUUACGGUCU | -0.462 ± 0.055 | 0.0374 ± 0.073
AGCUAGCAAUAUUACGUAUG | -2.52 ± 0.15 | -0.829 ± 0.12
AUACAGCAAUAUUACGAUGA | -1.42 ± 0.11 | -0.0115 ± 0.1
AACAAGCAAUAUUACGAUCU | -0.25 ± 0.062 | -0.072 ± 0.08
GCUAAGCAAUAUUACGCAGA | -2.53 ± 0.26 | -0.61 ± 0.21
GUUGAGCAAUAUUACGCCGA | -2.15 ± 0.41 | 
GAACAGCAAUAUUACGCUAG | -1.69 ± 0.098 | -0.109 ± 0.092
CUGGAGCAAUAUUACGGACG | -1.4 ± 0.11 | -0.808 ± 0.11
GGAGAGCAAUAUUACGCGAU | -2.76 ± 0.28 | -1.64 ± 0.37
CAUGAGCAAUAUUACGACCG | -0.701 ± 0.12 | 0.276 ± 0.14
GAGCAGCAAUAUUACGACUU | -0.557 ± 0.11 | -0.841 ± 0.14

Sequence | self-splicing fitness (ln) (30 °C) | self-splicing fitness (ln) (37 °C)
ACAGAGCAAUAUUACGUGAU | -2.97 ± 0.1 | -2.08 ± 0.15
UUGCAGCAAUAUUACGUCUC | -1.21 ± 0.12 | -0.311 ± 0.16
CGUAAGCAAUAUUACGGCUC |  | -0.977 ± 0.42
AUGCAGCAAUAUUACGUUGG | -2.96 ± 0.098 | -2.33 ± 0.17
GAUUAGCAAUAUUACGAUUU | -0.392 ± 0.12 | 0.757 ± 0.13
AUGCAGCAAUAUUACGGCGG | -1.76 ± 0.068 | -0.59 ± 0.081
UUUAAGCAAUAUUACGACCA | -0.979 ± 0.27 | -0.376 ± 0.24
UUCUAGCAAUAUUACGCAUC | -2.33 ± 0.42 | -0.769 ± 0.29
AUCCAGCAAUAUUACGGUCA | -0.209 ± 0.065 | 0.168 ± 0.072
CCUUAGCAAUAUUACGGUCA |  | -3.63 ± 0.37
GGAUAGCAAUAUUACGAAGG | -2.12 ± 0.24 | -2.02 ± 0.26
UUCCAGCAAUAUUACGUUAC | -3.45 ± 0.43 | -2.57 ± 0.25
GAACAGCAAUAUUACGAAAA | -1.77 ± 0.14 | -1.65 ± 0.12
CGAUAGCAAUAUUACGAACG | -0.892 ± 0.11 | 0.0703 ± 0.12
UUGUAGCAAUAUUACGGGGG | -2.82 ± 0.41 | 
AUAAAGCAAUAUUACGACGC | 0.18 ± 0.093 | 0.349 ± 0.14
CUAGAGCAAUAUUACGUACU | -3.83 ± 0.3 | -3.27 ± 0.43
GCCUAGCAAUAUUACGCGCG | -1.66 ± 0.23 | -1.18 ± 0.22
GACUAGCAAUAUUACGGAUC | -0.87 ± 0.096 | -0.304 ± 0.14
UACGAGCAAUAUUACGAACA | -2.11 ± 0.27 | -2.13 ± 0.29
CAAGAGCAAUAUUACGGCAU | -3.14 ± 0.23 | -2.02 ± 0.21
AUAAAGCAAUAUUACGACUC | -0.219 ± 0.075 | 0.324 ± 0.088
UGGUAGCAAUAUUACGAUCU | -0.554 ± 0.13 | 0.576 ± 0.18
GUACAGCAAUAUUACGAAGA | -2.52 ± 0.32 | -1.83 ± 0.28
AGGCAGCAAUAUUACGUGUC | -3.18 ± 0.15 | -2.58 ± 0.19
